Data reported in patent publication US20030175278A1 (published 2003).

B1: near full-length ubiquilin-prey clone (FIG. 2 III, construct H without GST), M37-S595 (other, not shown: large carriers)
chain: MKVTVKTPKEKEEFAVPENSSVQQFKEEISKRFKSHTDQLVLIFAGKILKDQDTLSQHGIHDGLTVHLVIKTQNRPQDHSAQQTNTAGTNVTTSSTPNSNSTSGSATSNPFGLGGLGGLAGLSSLGLNTTNFSELQSQMQRQLLSNPEMMVQIMENPFVQSMLSNPDLMRQLIMANPQMQQLIQRNPEISHMLNNPDIMRQTLELARNPAMMQEMMRNQDRALSNLESIPGGYNALRRMYTDIQEPMLSAAQEQFGGNPFASLVSNTSSGEGSQPSRTENRDPLPNPWAPQTSQSSSASSGTASTVGGTTGSTASGTSGQSTTAPNLVPGVGASMFNTPGMQSLLQQITENPQLMQNMLSAPYMRSMMQSLSQNPDLAAQMMLNNPLFAGNPQLQEQMRQQLPTFLQQMQNPDTLSAMSNPRAMQALLQIQQGLQTLATEAPGLIPGFTPGLGALGSTGGSSGTNGSNATPSENTSPTAGTTEPGHQQFIQQMLQALAGVNPQLQNPEVRFQQQLEQLSAMGFLNREANLQALIATGGDINAAIERLLGSQHHSSISVS
notes: also called near full-length clone (encoding residues 37-595); the longer ubiquilin clone
B2: ubiquilin-prey clone (FIG. 2 III, construct B without GST), Q378-S595 (other, not shown: large carriers)
chain: QSLLQQITENPQLMQNMLSAPYMRSMMQSLSQNPDLAAQMMLNNPLFAGNPQLQEQMRQQLPTFLQQMQNPDTLSAMSNPRAMQALLQIQQGLQTLATEAPGLIPGFTPGLGALGSTGGSSGTNGSNATPSENTSPTAGTTEPGHQQFIQQMLQALAGVNPQLQNPEVRFQQQLEQLSAMGFLNREANLQALIATGGDINAAIERLLGSQHHSSISVS
notes: also called partial ubiquilin clone (encoding the COOH-terminal 218 residues)

Biological target: T1, PS2-COOH terminus Y2H bait (PS2 COOH-terminal 39 amino acids, K410-I448) (human)
T1 construct: also called PS2-COOH-terminal bait; not shown: the LexA fusion partner of the bait and any linker
Experiment: Y2H β-galactosidase liquid culture assay (ONPG)
Protocol: The yeast two-hybrid (Y2H) procedure that utilizes the LexA/transactivation system was performed, as described previously (Stabler, et al. 1999). The PS2 COOH-terminal 39-amino acids (residues […]) (see FIG. 1a and FIG. b) were used as bait to screen a human fetal brain cDNA library. Out of 10⁷ primary yeast transformants, 50 clones were selected for further analysis based on growth in the absence of leucine and a substantial blue color change when grown on 5-bromo-4-chloro-3-indolyl-β-D-galactopyranoside (X-gal) plates. False positives were subsequently eliminated based on their interactions with negative-control baits, such as LexA alone, nuclear lamin B, and CENP-C centromere protein. Plasmid DNAs were isolated from clones that fulfilled the above requirements, and the DNA sequences of their inserts were determined and compared with the GenBank/EMBL/DDBJ databases using the BLAST search program. […] Interaction of ubiquilin proteins with various PS1 and PS2 baits were quantified in liquid culture assays by the enzymatic conversion of o-nitrophenyl-β-D-galactopyranoside (ONPG) to o-nitrophenol and D-galactose by β-galactosidase enzyme encoded by an Y2H reporter plasmid.
Interaction between ubiquilin and the presenilins was quantified in Y2H β-galactosidase liquid culture assays. […]

T1 sequence (chain, as listed by the source limits assumed): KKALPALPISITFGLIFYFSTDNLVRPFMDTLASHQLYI

| Binder | fold β-galactosidase activity compared with negative-control baits [fold] |
| --- | --- |
| B1 | > 55 |
| B2 | > 55 |
